The source of these data is US5576288A, “Fibroblast growth factor conjugates” (The Salk Institute For Biological Studies, priority 1994, dated 1996).

The test system of data set [1] is BHK cells. Nature of the data set: competition of cytotoxicity by preincubation with basic FGF or NGF. The class given is cell-based, baby hamster. The following applies: BHK cells preincubated one hour; basic FGF-SAP 10^-10 M; up to thousand-fold excess; FIG. 4. How it is done:
Basic FGF-SAP was used at a concentration of 10^-10 M basic FGF-AP and C: preincubation with equimolar free of basic FGF; D: 10-fold excess of free basic FGF; E: 100-fold excess of basic FGF; F: 1000-fold excess of basic FGF; G: equimolar incubation with equimolar free NGF; H: 10-fold molar excess; I: 100-fold molar excess, J: […].
Specificity of the cytotoxic agent was examined in competition experiments in an effort to establish that the mitotoxic activity of the conjugate is receptor specific. BHK cells were preincubated for one hour with various levels of basic FGF or nerve growth factor (NGF) prior to treatment of the cells with the cytotoxic agent. […] In contrast, a thousand-fold excess of NGF has no effect.

Data set [2] relates to BHK cells. Description: cytotoxic activity on BHK cells (cell count after two days). The following applies: highest dose tested 10^-8 M, FIG. 3. The class given is cell-based, baby hamster. On the procedure: The protein synthesis inhibition activity of the SAP protein was compared to the protein synthesis inhibition activity of the basic FGF-SAP conjugate in in vitro assays of protein synthesis as described in Siehn et al., Blood, 72:756-765 (1988), which is incorporated herein by reference. The cytotoxic activity of the conjugate was tested on baby hamster kidney fibroblasts (ATCC Accession No. CRL 6281). BHK cells were plated in 24 well plates at a concentration of 5000 cells/ml and incubated overnight at 37° C., 5% CO2. The following morning, HEPES-buffered DMEM and F-12 media (1:1) plus 5% FCS was aspirated from the wells and replaced with media alone or with media containing the conjugate, basic FGF or saporin. Two days later, the cells were washed twice, trypsinized and cell number determined with a Coulter Particle Counter (Coulter Electronics, Hialeah, Fla.).

As for “NGF: nerve growth factor used as competition control”, in data set [1], the “effect of preincubation on cytotoxic activity of basic FGF-SAP” value is given as “no effect”.

In the case of “SAP: type-1 ribosome-inactivating protein isolated from the seeds of Saponaria officinalis”, in data set [2], the “toxic effect on BHK cell proliferation” value was “no toxic effect”.
